# Source: patent publication EP4682168A1, “ANTI-LIV-1 ANTIBODY AND ANTI-LIV-1 ANTIBODY-DRUG CONJUGATE, AND PHARMACEUTICAL USE THEREOF” (priority 2023, dated 2024)
# T1: LIV-1 expressed on the cell surface of cancer cell lines (human) (UniProt Q13433)
# T1 sequence (looked up): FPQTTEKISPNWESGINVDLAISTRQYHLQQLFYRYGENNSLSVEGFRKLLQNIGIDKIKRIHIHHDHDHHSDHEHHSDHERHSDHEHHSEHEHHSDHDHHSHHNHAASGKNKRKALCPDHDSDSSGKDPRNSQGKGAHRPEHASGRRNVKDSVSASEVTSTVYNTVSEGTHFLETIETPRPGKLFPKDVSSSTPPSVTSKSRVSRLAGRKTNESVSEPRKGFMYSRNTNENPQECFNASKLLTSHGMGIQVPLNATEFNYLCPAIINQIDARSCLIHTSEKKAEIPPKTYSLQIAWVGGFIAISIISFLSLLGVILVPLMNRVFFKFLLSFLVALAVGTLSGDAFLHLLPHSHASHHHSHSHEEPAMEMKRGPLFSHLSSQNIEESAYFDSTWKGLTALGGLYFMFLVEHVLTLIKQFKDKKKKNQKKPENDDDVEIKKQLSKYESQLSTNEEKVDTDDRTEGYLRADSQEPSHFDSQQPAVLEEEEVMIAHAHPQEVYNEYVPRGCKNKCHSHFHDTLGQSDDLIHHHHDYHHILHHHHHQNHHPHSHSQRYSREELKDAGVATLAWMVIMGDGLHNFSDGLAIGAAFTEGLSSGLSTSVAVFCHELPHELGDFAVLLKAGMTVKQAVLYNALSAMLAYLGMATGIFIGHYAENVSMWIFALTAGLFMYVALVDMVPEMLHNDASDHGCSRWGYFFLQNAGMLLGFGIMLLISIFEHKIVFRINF
# T2: LIV-1 expressed on the cell surface of cancer cell lines (human, UniProt Q13433 29-755)
# T2 sequence (looked up): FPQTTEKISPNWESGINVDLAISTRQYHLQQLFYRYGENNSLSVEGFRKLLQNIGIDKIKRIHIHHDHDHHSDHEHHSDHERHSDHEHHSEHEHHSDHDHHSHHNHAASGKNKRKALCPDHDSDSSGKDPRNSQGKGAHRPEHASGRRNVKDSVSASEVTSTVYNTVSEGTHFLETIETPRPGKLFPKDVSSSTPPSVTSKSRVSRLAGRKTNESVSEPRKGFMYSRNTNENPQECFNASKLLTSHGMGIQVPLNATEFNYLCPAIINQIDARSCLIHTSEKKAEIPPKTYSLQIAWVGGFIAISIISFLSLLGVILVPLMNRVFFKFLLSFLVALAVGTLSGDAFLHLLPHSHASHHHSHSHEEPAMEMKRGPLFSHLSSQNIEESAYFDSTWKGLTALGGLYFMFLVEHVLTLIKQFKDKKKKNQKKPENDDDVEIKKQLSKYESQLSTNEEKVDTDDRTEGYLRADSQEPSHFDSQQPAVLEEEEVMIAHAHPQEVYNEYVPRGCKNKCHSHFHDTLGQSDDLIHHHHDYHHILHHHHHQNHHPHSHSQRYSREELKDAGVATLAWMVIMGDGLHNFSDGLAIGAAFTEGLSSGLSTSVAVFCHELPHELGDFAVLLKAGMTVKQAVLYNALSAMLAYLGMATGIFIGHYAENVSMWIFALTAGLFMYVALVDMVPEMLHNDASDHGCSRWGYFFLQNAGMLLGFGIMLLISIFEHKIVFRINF
# Assays:
# [1] = molecular target: T1, LIV-1 expressed on the cell surface of cancer cell lines (human); experiment: flow cytometry, isotype control, PC-3 cells (endogenous LIV-1)
# [2] = molecular target: T1, LIV-1 expressed on the cell surface of cancer cell lines (human); experiment: flow cytometry, isotype control, Calu6 cells (endogenous LIV-1)
# [3] = molecular target: T1, LIV-1 expressed on the cell surface of cancer cell lines (human); experiment: flow cytometry, isotype control, HCC 1806 cells (endogenous LIV-1)
# [4] = molecular target: T1, LIV-1 expressed on the cell surface of cancer cell lines (human); experiment: flow cytometry, isotype control, MCF7-Liv1 #7 cells (high exogenous LIV-1)
# [5] = molecular target: T1, LIV-1 expressed on the cell surface of cancer cell lines (human); experiment: flow cytometry, isotype control, MCF7-Liv1 #17 cells (high exogenous LIV-1)
# [6] = molecular target: T1, LIV-1 expressed on the cell surface of cancer cell lines (human); experiment: flow cytometry, isotype control, MCF7-Liv1 #12 cells (moderate exogenous LIV-1)
# [7] = test system: PC3 mouse subcutaneous tumors; experiment: PC3 prostate cancer xenograft efficacy study; type: in vivo, CD1 athymic nude mice; conditions: Single dose of 10 mg/kg, intravenous injection
# Protocol: (§1) Tumor cells grown in the implantation culture of CD1 athymic nude mice: Calu-6 (2.5 × 10^6 cells in 50% matrigel) from ATCC, PC-3 (2.5 × 10^6 cells) from ATCC, and PA-1 (5 × 10^6 cells in 50% matrigel) from ATCC. Tumor cells grown in the implantation culture of NSG mice: HCC1806 (2.5 × 10^6 cells in 50% matrigel) from ATCC and MCF-7 (10 × 10^6 cells; for the in vivo growth of MCF-7, 8.5 µg/mL estradiol was added to the drinking water of female mice) from NCI.
# (§2) When the tumors grew to 150 mm^3, the humanized LIV-1 ADC or the non-binding control ADC (1 mg/kg, 3 mg/kg, 6 mg/kg, or 10 mg/kg) was administered by intravenous injection once every four days for a total of four administrations (q4d × 4), by intravenous injection once every week for a total of 2 administrations (qw × 2), or by single intravenous injection. The tumor volume was monitored using a caliper, and the animals were euthanized when the tumor volume reached about 2000 mm^3. Tumor volume plots were continued for each group until one or more animals were euthanized. All animal procedures were conducted in a facility approved by the Association for Assessment and Accreditation of Laboratory Animal Care in accordance with protocols approved by the Institutional Animal Care and Use Committee. TGI was calculated as follows: TGI (%) = 1−[(Td−T0)/(Cd−C0)] × 100% [formula] […]
# [8] = test system: PA-1 mouse subcutaneous tumors; experiment: PA-1 ovarian cancer xenograft efficacy study; type: in vivo, CD1 athymic nude mice; conditions: Single dose of 3 mg/kg, intravenous injection
# Protocol: as §1, §2
# [9] = molecular target: T1, LIV-1 expressed on the cell surface of cancer cell lines (human); experiment: flow cytometry, 10 µg/mL antibody, PC-3 cells (endogenous LIV-1)
# [10] = molecular target: T1, LIV-1 expressed on the cell surface of cancer cell lines (human); experiment: flow cytometry, 10 µg/mL antibody, Calu6 cells (endogenous LIV-1)
# [11] = molecular target: T1, LIV-1 expressed on the cell surface of cancer cell lines (human); experiment: flow cytometry, antibody A against IgG1 isotype control, PC-3 cells
# [12] = molecular target: T1, LIV-1 expressed on the cell surface of cancer cell lines (human); experiment: flow cytometry, 10 µg/mL antibody, HCC 1806 cells (endogenous LIV-1)
# [13] = molecular target: T1, LIV-1 expressed on the cell surface of cancer cell lines (human); experiment: flow cytometry, antibody A against IgG1 isotype control, Calu6 cells
# [14] = molecular target: T1, LIV-1 expressed on the cell surface of cancer cell lines (human); experiment: flow cytometry, antibody A against IgG1 isotype control, HCC 1806 cells
# [15] = molecular target: T1, LIV-1 expressed on the cell surface of cancer cell lines (human); experiment: flow cytometry, antibody A against IgG1 isotype control, MCF7-Liv1 #7 cells
# [16] = molecular target: T1, LIV-1 expressed on the cell surface of cancer cell lines (human); experiment: flow cytometry, 10 µg/mL antibody, MCF7-Liv1 #7 cells (high exogenous LIV-1)
# [17] = molecular target: T1, LIV-1 expressed on the cell surface of cancer cell lines (human); experiment: flow cytometry, antibody A against IgG1 isotype control, MCF7-Liv1 #12 cells
# [18] = molecular target: T1, LIV-1 expressed on the cell surface of cancer cell lines (human); experiment: flow cytometry, antibody A against IgG1 isotype control, MCF7-Liv1 #17 cells
# [19] = molecular target: T1, LIV-1 expressed on the cell surface of cancer cell lines (human); experiment: flow cytometry, 10 µg/mL antibody, MCF7-Liv1 #17 cells (high exogenous LIV-1)
# [20] = molecular target: T1, LIV-1 expressed on the cell surface of cancer cell lines (human); experiment: flow cytometry, 10 µg/mL antibody, MCF7-Liv1 #12 cells (moderate exogenous LIV-1)
# [21] = molecular target: T2, LIV-1 expressed on the cell surface of …; experiment: cell-based or functional assay
# [22] = molecular target: human LIV-1 antigen (with a His tag, NP_036451.1, amino acids Phe229-Ile323) (human) (UniProt Q13433); experiment: ForteBio (BLI)
molecule,measurement,setting,value
"non-specific isotype control commercial antibody IgG (BioXCell, BE0297)",MFI (RFU),[1],2840 RFU
same,MFI (RFU),[2],4440 RFU
same,MFI (RFU),[3],2180 RFU
same,MFI (RFU),[4],3410 RFU
same,MFI (RFU),[5],1510 RFU
same,MFI (RFU),[6],3120 RFU
"L-McMMAE: Ladiratuzumab antibody L conjugated to MC-MMAE, DAR of 3.5-4; prior-art ADC targeting Liv-1 (conjugate, chains of the INN, looked up, MC-MMAE payload) VH: QVQLVQSGAEVKKPGASVKVSCKASGLTIEDYYMHWVRQAPGQGLEWMGWIDPENGDTEYGPKFQGRVTMTRDTSINTAYMELSRLRSDDTAVYYCAVHNAHYGTWFAYWGQGTLVTVSS VL: DVVMTQSPLSLPVTLGQPASISCRSSQSLLHSSGNTYLEWYQQRPGQSPRPLIYKISTRFSGVPDRFSGSGSGTDFTLKISRVEAEDVGVYYCFQGSHVPYTFGGGTKVEIK",Tumor growth inhibition rate TGI% (day 24 after administration),[7],103.92%
same,Tumor growth inhibition rate TGI% (day 13 after administration),[8],26.68%
"Antibody A (antibody, human IgG1, kappa, V domains shown) VH: EVQLVQSGAEVKKPGATVKISCKASGLNIEDYYMHWVQQAPGKGLEWMGWIDPENGDTEYAEKFQGRVTITADTSTNTAYMELSSLRSEDTAVYYCTVHNAHYGTWFAYWGQGTTVTVSS VL: DIVMTQTPLSLSVTPGQPASISCRSSQTLVRSDGNTYLEWYLQKPGQSPQLLIYRVSNRFSGVPDRFSGSGSGTDFTLKISRVEAEDVGVYYCFQGSHVPYTFGGGTKLEIKR",MFI (RFU),[9],5660 RFU
same,MFI (RFU),[10],11100 RFU
same,MFI ratio (MFI of anti-LIV-1/MFI of control antibody),[11],2
same,MFI (RFU),[12],4420 RFU
same,MFI ratio (MFI of anti-LIV-1/MFI of control antibody),[13],2.5
same,MFI ratio (MFI of anti-LIV-1/MFI of control antibody),[14],2
same,MFI ratio (MFI of anti-LIV-1/MFI of control antibody),[15],38.7
same,MFI (RFU),[16],132000 RFU
same,MFI ratio (MFI of anti-LIV-1/MFI of control antibody),[17],6.7
same,MFI ratio (MFI of anti-LIV-1/MFI of control antibody),[18],71.1
same,MFI (RFU),[19],107000 RFU
same,MFI (RFU),[20],20900 RFU
"A-BrAcMMAE (antibody, human IgG1, kappa, V domains shown, MMAE drug-linker (compound 11, bromoacetyl-Val-Cit-PAB-MMAE) on reduced cysteine sulfhydryls; average DAR 3.5-4; positions not given) VH: EVQLVQSGAEVKKPGATVKISCKASGLNIEDYYMHWVQQAPGKGLEWMGWIDPENGDTEYAEKFQGRVTITADTSTNTAYMELSSLRSEDTAVYYCTVHNAHYGTWFAYWGQGTTVTVSS VL: DIVMTQTPLSLSVTPGQPASISCRSSQTLVRSDGNTYLEWYLQKPGQSPQLLIYRVSNRFSGVPDRFSGSGSGTDFTLKISRVEAEDVGVYYCFQGSHVPYTFGGGTKLEIKR","IC50 (nM) for inhibition of proliferation, Calu6 cells, CellTiterGlo2",[21],11 nM
same,"IC50 (nM) for inhibition of proliferation, MCF7-Liv1 #7 cells, CellTiterGlo2",[21],0.03 nM
same,"IC50 (nM) for inhibition of proliferation, MCF7-Liv1 #12 cells, CellTiterGlo2",[21],0.031 nM
same,"IC50 (nM) for inhibition of proliferation, MCF7-Liv1 #17 cells, CellTiterGlo2",[21],0.05 nM
"Antibody A-1 (antibody, human IgG1, kappa, V domains shown) VH: EVQLVQSGAEVKKPGATVKISCKASGLNIEDYYMHWVQQAPGKGLEWMGWIDPENGDTEYAEKFQGRVTITADTSTDTAYMELSSLRSEDTAVYYCTVHNAHYGTWFAYWGQGTTVTVSS VL: DIVMTQTPLSLSVTPGQPASISCRSSQTLVRSDGNTYLEWYLQKPGQSPQLLIYRVSNRFSGVPDRFSGSGSGTDFTLKISRVEAEDVGVYYCFQGSHVPYTFGGGTKLEIKR",Kd,[22],52.4 pM
same,koff,[22],4.17e-05 s⁻¹
same,kon,[22],796000 M⁻¹ s⁻¹
